Results as given in the supplement of paper PMC10567573.

B1: SEC22B (parent)
chain: FPKKLAFAYLEDLHSEFDEQHGKK

Variants of: B1
Assay: protein stability index of a GFP-peptide fusion (GPS, HEK-293T) (PSI 1-6); higher = more stable
Details: c terminus: a fixed tail appended
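Note: lentivirally expressed fusions sorted by FACS into six bins by GFP to DsRed ratio, PSI derived from sequencing read proportions per bin multiplied by bin number.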

Protein stability index, by site and new letter:
L5: Q 3.18; C 1.66; S 2.64; H 1.95; M 1.84; W 1.59; A 2.15; E 3.56; G 2.41; P 1.77; R 2.65; F 2.17; T 3.02; Y 2.52; I 2.98; K 2.85; V 2.9; D 3.26; N 2.65
Y9: T 2.5; H 3.1; A 2.85; G 3.27; I 1.8; Q 2.91; W 1.67; S 2.73; N 3.67; P 2.9; C 2.18; R 3.09; D 3.15; L 2.63; F 1.99; E 3.04; M 2.48; V 2.2; K 3.08
L13: I 2.62; H 2.93; K 3.2; S 2.56; C 2.83; A 3.2; Q 3.21; T 2.79; M 2.3; E 3.23; N 3.13; R 2.79; D 2.54; P 2.61; G 3.51; F 2.5
L10: E 3.35; Q 3.39; T 3.16; N 3.33; C 2.21; D 3.56; P 2.92; V 2.11; G 2.78; H 2.75; Y 2.84; W 2.27; A 2.47; M 2.43; S 3.15; F 2.31; K 3.46; I 2.34; R 2.75
E11: K 2.63; T 2.64; S 1.78; P 1.8; D 2.37; I 1.87; C 1.88; M 2.17; V 1.77; L 2.35; W 2.02; G 2.08; F 1.97; Y 1.98; R 2.24; Q 1.94; H 1.86; N 2.61; A 2.29
A8: S 3.06; G 3.04; E 3.27; P 2.84; V 2.31; H 2.72; I 2.4; T 2.64; R 2.34; K 2.91; D 3.39; L 1.88; N 2.83; Q 3.08; Y 1.79; C 2.09; M 2.68; F 2.26
A6: I 2.35; W 2.74; R 2.28; T 3.03; Q 3.18; P 3.06; K 2.59; S 2.69; D 3.13; E 3.96; N 2.56; M 2.3; C 2.29; G 2.45; Y 1.66; V 2.45; L 1.83; F 2.4; H 2.91
F7: D 3.98; V 2.67; I 3.24; G 3.8; A 3.63; K 3.8; Y 2.5; N 3.79; Q 4.16; P 3.39; S 3.8; L 2.65; H 3.42; E 4; M 2.53; T 3.33; C 3.47; R 3.28; W 1.95
D12: Y 1.89; F 1.97; C 1.95; I 1.72; Q 2.22; R 1.93; M 2.39; S 2.16; E 3.72; L 1.77; K 2.38; V 1.85; P 2.33; T 2.39; A 2.1; N 2.97; W 2.49; H 2.25; G 2.77
